# According to PMC11255114:
# Assays:
# [1] = target: N-formylmethionine Anti-TRAP (fAT), trimer fAT3 none (N-terminal formylation of Met1) (UniProt O31466); assay: Small-angle X-ray scattering (SIBYLS beamline, ALS); conditions: pH 8, 100 mM NaCl, 50 mM sodium-phosphate
# [2] = target: Bacillus subtilis Anti-TRAP protein (AT), mature (deformylated) (Bacillus subtilis); assay: AUC; sedimentation velocity, interference optics, 25 °C, 50,000 rpm; 50 mM sodium phosphate, 100 mM NaCl, 0.5 mM tryptophan, 0.02 % NaN3, pH 7 to 8; 65-500 µM AT monomer; global fit in SEDPHAT to a three-state model, 4 AT3 to 2 AT6 to AT12; apparent rate constants, KD from their ratio
# [3] = target: Anti-TRAP (AT), mature deformylated form, trimer AT3 (assembly unit) (UniProt O31466+O31466); assay: Sedimentation velocity analytical ultracentrifugation (interference optics, 50,000 rpm); conditions: pH 8; 25 °C; 100 mM NaCl plus 50 mM sodium phosphate; 50 mM sodium phosphate at pH 7, 7.25, 7.5 and 8 (Fig. 4 caption also lists pH 7.75)
# [4] = target: N-terminal formylmethionine Anti-TRAP (fAT) of Bacillus subtilis (Bacillus subtilis); assay: NMR solution structure; fAT3, data at 55 °C; NOEs, torsion angles, RDCs, three-fold symmetry and SAXS restraints; homo-trimer
# [5] = target: N-terminal formylmethionine Anti-TRAP (fAT) of Bacillus subtilis (Bacillus subtilis); assay: SAXS; fAT at 1, 2, 3.3, 5 and 10 mg/mL in 50 mM sodium phosphate pH 8, 100 mM NaCl, 200 µM ZnCl2, 1 mM TCEP; SIBYLS beamline; deconvolution into trimer and dodecamer
# [6] = target: N-terminal formylmethionine Anti-TRAP (fAT) of Bacillus subtilis (Bacillus subtilis); assay: NMR spectra (1H-15N HSQC); 3 mM fAT in 20 mM d11-Tris pH 7.5, 20 mM β-mercaptoethanol, 1 mM ZnCl2; also a pH series 6.5 to 8.0 at 25 °C; step looked at for non-binding: trimers to dodecamer
substance,measurement,setting,value
"N-formylmethionine Anti-TRAP (fAT), trimer fAT3 none (N-terminal formylation of Met1)",fraction of dodecamer in fAT by SAXS deconvolution,[1],<3% at 10 mg/mL
"Bacillus subtilis Anti-TRAP protein (AT), mature (deformylated) (natural protein)",KD of the first step (two AT3 to AT6),[2],20 to 90 µM
same,stoichiometry N,[2],6
"Anti-TRAP (AT), mature deformylated form, trimer AT3 (assembly unit)","equilibrium (dissociation) constant, step 2 (2 AT6 <-> AT12)",[3],0.05 to 50 µM (upper end of range)
N-terminal formylmethionine Anti-TRAP (fAT) of Bacillus subtilis (natural protein),stoichiometry N,[4],3
same,percent dodecamer,[5],< 3%
same,stoichiometry N,[6],3
